Results: IntAct's records for PubMed 24876499

B1: Phosphatidylinositol 4-kinase beta (Homo sapiens), Q9UBF8-2 (parent)
chain: MGDTVVEPAPLKPTSEPTSGPPGNNGGSLLSVITEGVGELSVIDPEVAQKACQEVLEKVKLLHGGVAVSSRGTPLELVNGDGVDSEIRCLDDPPAQIREEEDEMGAAVASGTAKGARRRRQNNSAKQSWLLRLFESKLFDISMAISYLYNSKEPGVQAYIGNRLFCFRNEDVDFYLPQLLNMYIHMDEDVGDAIKPYIVHRCRQSINFSLQCALLLGAYSSDMHISTQRHSRGTKLRKLILSDELKPAHRKRELPSLSPAPDTGLSPSKRTHQRSKSDATASISLSSNLKRTASNPKVENEDEPVRLAPEREFIKSLMAIGKRLATLPTKEQKTQRLISELSLLNHKLPARVWLPTAGFDHHVVRVPHTQAVVLNSKDKAPYLIYVEVLECENFDTTSVPARIPENRIRSTRSVENLPECGITHEQRAGSFSTVPNYDNDDEAWSVDDIGELQVELPEVHTNSCDNISQFSVDSITSQESKEPVFIAAGDIRRRLSEQLAHTPTAFKRDPEDPSAVALKEPWQEKVRRIREGSPYGHLPNWRLLSVIVKCGDDLRQELLAFQVLKQLQSIWEQERVPLWIKPYKILVISADSGMIEPVVNAVSIHQVKKQSQLSLLDYFLQEHGSYTTEAFLSAQRNFVQSCAGYCLVCYLLQVKDRHNGNILLDAEGHIIHIDFGFILSSSPRNLGFETSAFKLTTEFVDVMGGLDGDMFNYYKMLMLQGLIAARKHMDKVVQIVEIMQQGSQLPCFHGSSTIRNLKERFHMSMTEEQLQLLVEQMVDGSMRSITTKLYDGFQYLTNGIM

Variants of: B1
Conditions: with rb11a_human RAB11A

effect of a mutation on the interaction | Variant
decreasing interaction strength | G155D
disrupting interaction strength | Y159A
disrupting interaction strength | N162A
disrupting interaction strength | Y159A;N162A
disrupting interaction strength | F165A
